Assay results as given in US20250368745A1 (published 2025).
Where a chain is given by its changes, count along the chain named. Names and notes keep the numbering of the source.

T1: cynomolgus IL-18BP (cynomolgus monkey)
T1 construct: also called cyno IL-18BP; cyIL-18BP
T1 chain: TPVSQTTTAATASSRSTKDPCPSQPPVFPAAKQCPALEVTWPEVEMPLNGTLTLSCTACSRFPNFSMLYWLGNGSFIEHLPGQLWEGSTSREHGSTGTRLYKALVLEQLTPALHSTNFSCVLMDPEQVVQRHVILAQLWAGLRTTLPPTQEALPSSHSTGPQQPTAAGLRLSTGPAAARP

T2: human IL-18BP (human, UniProt O95998 31-194)
T2 construct: UniProt printed as 095998; also called hIL-18BP
T2 sequence: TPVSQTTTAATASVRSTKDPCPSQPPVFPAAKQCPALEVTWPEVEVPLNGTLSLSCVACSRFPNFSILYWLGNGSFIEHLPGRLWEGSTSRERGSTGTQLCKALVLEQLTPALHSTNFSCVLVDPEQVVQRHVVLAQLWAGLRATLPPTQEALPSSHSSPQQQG

B1: SA301a HC-V100aR (antibody, name in Kabat numbering, V domains shown)
VH: QVQLQESGPGLVKPSQTLSLTCTVSGYSITSDYNSHWIRQPPGKGLEWIGYIHYSGSTNYNPSLKSRVTISRDTSKNQFSLKLSSVTAADTAVYYCARNYGSIYRNYFDYWGQGTLVTVSS
VL: EIVLTQSPATLSLSPGERATLSCSASSSVSYMYWYQQKPGQAPRPLIYRTSNLASGIPARFSGSGSGTDFTLTISSLEPEDFAVYYCQQYHSYPTFGGGTKVEIK
notes: IgG1 kappa
B2: SA301a HC-Y100S (antibody, V domains shown)
VH: B1 VH with Y104S, R105V
VL: B1 VL
B3: SA301a HC-Y100M (antibody, V domains shown)
VH: B1 VH with Y104M, R105V
VL: B1 VL
B4: SA301a HC-Y100V (antibody, V domains shown)
VH: B1 VH with Y104V, R105V
VL: B1 VL
B5: SA301a HC-Y100F (antibody, V domains shown)
VH: B1 VH with Y104F, R105V
VL: B1 VL
B6: SA301a HC-Y100G (antibody, V domains shown)
VH: B1 VH with Y104G, R105V
VL: B1 VL
B7: SA301a HC-Y100L (antibody, V domains shown)
VH: B1 VH with Y104L, R105V
VL: B1 VL
B8: SA301a HC-Y100T (antibody, V domains shown)
VH: B1 VH with Y104T, R105V
VL: B1 VL
B9: SA301a HC-Y100I (antibody, V domains shown)
VH: B1 VH with Y104I, R105V
VL: B1 VL
B10: SA301a HC-Y100Q (antibody, V domains shown)
VH: B1 VH with Y104Q, R105V
VL: B1 VL
B11: SA301a HC-Y100D (antibody, V domains shown)
VH: B1 VH with Y104D, R105V
VL: B1 VL
B12: SA301a HC-Y100A (antibody, V domains shown)
VH: B1 VH with Y104A, R105V
VL: B1 VL
B13: SA301a HC-Y100P (antibody, V domains shown)
VH: B1 VH with Y104P, R105V
VL: B1 VL
B14: SA301a HC-Y100H (antibody, V domains shown)
VH: B1 VH with Y104H, R105V
VL: B1 VL
B15: SA301a HC-Y100N (antibody, V domains shown)
VH: B1 VH with Y104N, R105V
VL: B1 VL
B16: SA301a HC-Y100R (antibody, V domains shown)
VH: B1 VH with Y104R, R105V
VL: B1 VL
B17: SA301a HC-V100aY (antibody, name in Kabat numbering, V domains shown)
VH: B1 VH with R105Y
VL: B1 VL
notes: IgG1 kappa

Experiments:
cynomolgus IL-18BP = biological target: T1, cynomolgus IL-18BP; test: BLI, apparent KD
human IL-18BP = biological target: T2, human IL-18BP; test: BLI, apparent KD

Binder | Kd (cynomolgus IL-18BP) [nM] | Kd (human IL-18BP) [nM]
B1 | 0.08 | 0.19
B2 | 3.27 | 0.72
B3 | 2.28 | 2.07
B4 | 2.55 | 1.59
B5 | 0.26 | 0.1
B6 | 0.48 | 0.51
B7 | 1.41 | 1.06
B8 | 4.48 | 1.08
B9 | 1.02 | 0.94
B10 | 3.58 | 1.88
B11 | 3.65 | 0.56
B12 | 4.17 | 0.88
B13 | 2.4 | 0.63
B14 | 1.1 | 1.3
B15 | 3.59 | 0.9
B16 | 2.06 | 1.32
B17 | 0.58 | 27.7
